Assay results as given in paper PMC7374964 (BMC Biology, 2020).

Columns and labels:
Details in all cases: one partner purified
[1] = molecular target: T1, HIV-1 ADA Env on CEM-NKR cells infected with the Nef- and Vpu-defective virus (NL4.3 GFP ADA/Nef-Vpu-), with … (HIV-1 ADA (Env clone not named); Homo …, UniProt Q6TAN8;P01730, strain); experiment: flow cytometry on cells
T1 construct: also called ADA/N-U- infected cells; pNL43/ADA/N-U- infected CEM-NKR target cells; copies: 3 + 3 +

[2] = molecular target: T2, HIV-1 JRFL Env on free pseudovirus particles (HIV-1 JRFL, UniProt Q75760, strain); experiment: fluorescence correlation spectroscopy (FCS)
T2 construct: copies: 3 + 3

[3] = molecular target: T3, HIV-1 JRFL Env on pseudovirus particles treated with the CD4 mimetic peptide M48U1 (HIV-1 JRFL, UniProt Q75760, strain); experiment: fluorescence correlation spectroscopy (FCS)
T3 construct: copies: 3 + 3 +

[4] = molecular target: T4, HIV-1 BaL Env on pseudovirus particles treated with the CD4 mimetic peptide M48U1 (HIV-1 BaL (Env clone not named), UniProt Q2MKA8, strain); experiment: fluorescence correlation spectroscopy (FCS)
T4 construct: source: HIV-1 BaL pseudoviruses [72] treated for 90 min at 37 °C with 200 ug/ml of M48U1; copies: 3 + 3 +

[5] = molecular target: T5, HIV-1 BaL Env on free pseudovirus particles (HIV-1 BaL (Env clone not named), UniProt Q2MKA8, strain); experiment: fluorescence correlation spectroscopy (FCS)
T5 construct: copies: 3 + 3

Measured: binding result

B1: mAb X5 (antibody, V domains shown)
VH: VQLLEQSGAEVKKPGSSVQVSCKASGGTFSMYGFNWVRQAPGHGLEWMGGIIPIFGTSNYAQKFRGRVTFTADQATSTAYMELTNLRSDDTAVYYCARDFGPDWEDGDSYDGSGRGFFDFWGQGTLVTVSS
VL: ELVLTQSPGTLSLSAGERATLSCRASQSVSSGSLAWYQQKPGQAPRLLIYGASTRATGIPDRFSGSGSGTDFTLTIGRLEPEDLAVYYCQQYGTSPYTFGQGTKLEIK
notes: source: generated in house [15]
binds: [1] | [2] | [3] | [4] | [5]
